Experimental data: patent US20040170601A1, “Method of improving the growth performance of an animal” (priority 2001, published 2004)
Entries after “also recorded” stand apart in the source; their conditions may differ.

Key:
eosinophils [1] = experiment: Example 4: % eosinophils of WBC in blood; assay type: in vivo, pigs; conditions: blood the day after treatment, end of weaner period
Source text: Blood and sera samples collected at the start (before treatments) and end of the weaner period. Blood and sera were taken prior to injecting samples.
Blood was taken the day after IL-5 and saline treatments and represent a single time point only. […] As a general observation IL-5 plus medication had higher eosinophils numbers than the IL-5 without antibiotics.

E. coli = experiment: Example 5: production loss during outbreak of post weaning scours; assay type: in vivo, pigs; conditions: vs respective saline controls
Source text: (§1) Unfortunately, a severe outbreak of post weaning scours affected all treatment groups. The most likely cause of the scours was E. coli. […] FIG. 25 compares the average weights of the saline controls, with and without antibiotics, from this experiment and the previous experiment. […] The infectious disease (scours) affected the un-medicated saline group at an earlier stage than the medicated group.
(§2) Weights were taken from the start to the end of the weaner period. […] This benefit was also reflected in the production loss as measured by deaths from infectious disease, or weight loss over any given week during the weaner period (FIG. 29).
(§3) All other deaths were a result of scours. Weight loss was defined as one or more weekly weight reductions of individual pigs. […] Antibiotic supplements also lessened production loss. Weight loss could have also been a result of stress, especially at the time of weaning when pigs are removed from sows, transported, mixed in different social groups and fed dry food. […] The higher average weights were presumably due to reduced severity of disease and associated weight loss. […] The pattern of higher average weight gains in IL-5 treated pigs was repeated with the reduced level and normal level of antibiotic supplementation (FIG. 31 and FIG. 32 respectively). […]

[2] = as above; assay type: in vivo, pigs; conditions: normal antibiotics, 2 days into weaner period
Source text: as §1, §2, §3

[3] = Example 5: repeat growth performance trial of IL-5 with normal, reduced and no antibiotics; assay type: in vivo, pigs
Method: This trial repeats the evaluation of IL-5 to improve growth performance and/or immunity of pigs by comparing the growth rate and health of male and female weaner pigs (from 28 days old: Week 0 of the trial) through the weaner (Weeks 0-6), grower (Weeks 6-13) and finisher (Weeks 13-19) stages to slaughter (Week 19), which were administered with recombinant porcine cytokine IL-5, and saline was used as a control, with and without standard weaner medicated water and feed, and reduced antibiotics, in a commercial piggery environment.
This trial (weaner/grower/finisher trial) was designed to investigate the effect of providing IL-5 and the controls (saline) from weaning to slaughter with normal, reduced and no antibiotics in water supply. The experiment evaluates the capacity of IL-5 for replacing antibiotics under commercial pig rearing conditions and to determine the effect of continuous administration of the cytokines throughout the life of the pig on performance and carcass characteristics.
The experiment was undertaken in a commercial environment where the pigs were weaned at 28 days of age. All injections were 1 ml. There were 16 pigs per treatment, 8 males and 8 females per treatment. The overall weight of pigs in each treatment was similar at the start of the experiment.
−means no antibiotic supplements in water or feed throughout trial.
0.5 means single antibiotics used throughout trial at normal dose
+ means normal antibiotic regime used throughout trial IL-5+ means IL-5 administered during Weaner/Grower/Finisher periods.
IL-5+p means IL-5 administered during Weaner period only.
A. Saline injection, 1 ml IM neck muscle.
B. 100 μg IL-5 injection, 1 ml IM neck muscle.
Weaner stage: 2 injections per week,
Grower and finisher stage 1 injection per week.
Pigs were weaned and weighted at the start of the experiment (D0, W0) and weekly until the end of the weaner period (W6), at the end of the grower (W13) and finisher (W19) stages and once during the grower (W9) and finisher (W16) stages. Blood and sera samples were collected at the start (before treatments) and end of the weaner, grower and finisher periods. Blood and sera were taken prior to treatment injection. Haematology (totals and differentials) was performed.
At the start of the trial, the mean weight and the variance of all groups was equalised to reduce confounding influence of starting weight. Thus, the positive effects on growth were due to treatment effects.

eosinophils [4] = experiment: Example 11: IL-5 and IL-3 on eosinophil production; assay type: in vivo, pigs
Source text: The aim of this example was to determine if the effects of IL-3 and IL-5 act synergistically to increase eosinophil levels and antibody production.
As IL-3 stimulates the proliferation of pre-active B cells prior to the effects of IL-5, it was believed that administration of both IL-3 and IL-5 would have a greater impact on eosinophil production than the administration of either cytokine alone. An experiment was undertaken using pigs raised under clean PC2 conditions with raised floors. There were 5 treatments with 6 pigs per treatment. Pigs were 5-6 weeks of age. The animals were injected intramuscularly on days 0, 3, 7 and 10 of the experiment with either recombinant cytokines or saline. The treatments include IL-5 and IL-3 alone and given either together at the same time at different sites or to the same animal but with IL-3 being administered one week before IL-5. The treatments were as follows:
Group 3—100 μg IL-3+100 μg IL-5 (separate sites)
The pigs were bled 4 times per week for the first 2 weeks and once per week for the following 2 weeks and haematology measured using a CellDyn machine. Sera were collected also each week and tested for antibody levels.

eosinophils [5] = experiment: Example 1: recombinant IL-5 and IL-5 DNA on eosinophil numbers in the blood of pigs; assay type: in vivo; conditions: recombinant IL-5 100 μg IM on 1 or 2 consecutive days, up to 12 days after treatment
Method: This trial compared the effects of recombinant porcine IL-5 protein and DNA delivered porcine IL-5 on eosinophil numbers in the blood of pigs.
6 pigs per treatment, approximately 7-8 weeks of age (weaners), mean weight of approx. 15 kg.
The experiment was conducted using medicated feed Barastoc EziWean 150 then Bunge Grolean CREEP ad libitum in an experimental environment (PC2 containment facilities).
Recombinant IL-5 was expressed in E. coli and purified using a GST tag system. (See, for example, Smith, D. B and Johnson, K. S. (1988), Gene, 67:31-40). IL-5 was cleaved from the GST tag, purified and tested in bioassays to confirm activity.
IL-5 cDNA (including the signal sequence) was cloned into the pCI DNA vector. DNA was purified using the Qiagen Giga Prep kit (Qiagen Inc. USA).
Total white cells and eosinophils were counted from slides.
Pre-bleed for haematology and dose with all treatments (1, 2, 3, 4, 5 as shown above)
8 hrs later, bleed for haematology

[6] = 2nd trial, normal medication, weaner period
[7] = normal antibiotics, IL-5 during weaner, grower, finisher periods

B1: interleukin 5 (protein, UniProt Q9MYM5 22-134, looked up)
Interleukin-5: VENTMNRLVAETLTLLSIHRTLLIGDGNLMISTPVHTNHQLCIEEVFQGIDTLKNQTARGDAVEKLFQNLSLIKEYIDRQKKNCGGERWRVTQFLDYLQVFLGVINTEWTMES
notes: recombinant porcine IL-5 protein expressed in E. coli; + / − = with / without antibiotic medicated feed and water, +p = weaner period only
Eosinophils [1]
  % eosinophil cells of WBC: substantial effect on % eosinophil cells of WBC in both the medicated and un-medicated groups
E. coli
  production loss (deaths from infectious disease or weight loss), weaner period: less production loss compared to their respective saline controls
[2]
  deaths: H. parasuis deaths occurred
[3]; [6]
  increase in average weights over medicated saline control: 7%
  increase in weight gain over medicated saline control: 11%
[3]; no, reduced or normal antibiotics
  total group weights, weaner period: beneficial effects on total weights, especially with reduced or no antibiotic supplements
[3]; normal antibiotics
  average weight increases, weaner-only vs continuous IL-5: no significant differences between groups given IL-5 during the weaner or continuously throughout the weaner, grower and finisher periods
[3]; [7]
  change of final average weight vs saline control: ~−1.5%
  decrease of final average weight vs saline control: 1.3 kg
[3]; normal antibiotics, W6 to W13
  average weights: consistently higher average weights than the saline control (with normal antibiotics) from the end of the weaner period (W6) to the end of the grower period (W13)
[3]; normal antibiotics, Week 13
  average weight higher than IL-5+p: 1.3 kg
  average weight higher than saline control: 4.7 kg
[3]; normal antibiotics, Week 19
  average weight lower than IL-5+p: 2 kg
  average weight lower than saline control: 1.3 kg
[3]; vs respective saline controls, with or without antibiotic supplements
  average weight gains during the Weaner period: consistently higher average weight gains during the Weaner period compared to the respective saline controls with or without antibiotic supplements in water or feed
[3]; vs saline controls without antibiotic supplements
  average weight gains during the Weaner period: consistently higher average weight gains during the Weaner period
Eosinophils [4]; after 4 injections
  eosinophil percentage of WBC relative to the original value: approximately 10 times
Eosinophils [4]; single cytokine 100 μg IM days 0, 3, 7, 10
  eosinophils as a percent of white blood cells: significant increase in eosinophil levels; also recorded: dramatically increased circulating eosinophil cells
Eosinophils [5]
  percentage eosinophils of white blood cells (WBC): transient (several days)
Eosinophils [5]; listed as recombinant IL-5
  percentage eosinophils of white blood cells (WBC): sustained increase in eosinophil numbers in blood over several days; also recorded: two doses being more effective than one dose; also recorded: more effective than DNA in increasing eosinophil numbers
